Reference: article PMC3968163

B1: unnamed (parent)
chain 1: SIDPADLDESWDYIFETTESPSSD
chain 2: MSHSGAAIFEKVSGIIAINEDVSPAELTWRSTDGDKVHTVVLSTIDKLQATPASSEKMMLRLIGKVDESKKRKDNEGNEVVPKPQRHMFSFNNRTVMDNIKMTLQQIISRYKDAD

Variants of: B1
Assay: ITC
Details: with partner chain of the complex shown; 25°C in a 20 mM Tris pH 7.4

Variant	Kd
chain 1 SIDPADLDESWDYSFETTESPSSD [chain 1 I14S]	4.2 µM
